The text below walks through data of PMC2528843.

A short description of data set [1]: flow cytometry, mean YFP fluorescence, stable HepG2. The following applies: glycan lost.
Data set [2] can be described thus: confocal imaging, apical targeting, polarized MDCK cells. The following applies: glycan lost; control: wild-type hSVCT1-YFP.
Data set [3] in a line: confocal imaging, cell surface targeting, stable HepG2. The following applies: glycan lost; control: wild-type hSVCT1-YFP.
A short description of data set [4]: [14C]-ascorbic acid uptake, stable HepG2 cells. To be noted: glycan lost; control: wild-type hSVCT1-YFP.
Data set [5] can be described thus: confocal imaging, transiently transfected HepG2. The following applies: glycan lost; control: untreated.

For the substance hSVCT1: N138/N144Q, the expression_or_secretion entry in data set [1] (control: wild-type hSVCT1-YFP) is “decreases”. Turning to hSVCT1: N138Q, the localisation_or_trafficking entry in data set [2] and in data set [3] was “decreases” throughout. Besides, the expression_or_secretion entry in data set [1] (control: wild-type hSVCT1-YFP) is “decreases”.

On to hSVCT1: N138Q/N144Q, for which, in data set [2], the localisation_or_trafficking entry is reported as “decreases”. Regarding hSVCT1: N144Q, the localisation_or_trafficking result in data set [2] and in data set [3] was “no change” throughout. For the same substance, the expression_or_secretion result in data set [1] (control: wild-type hSVCT1-YFP) is “no change”. The “other: transport activity” value in data set [4] is given as “decreases”. Consider hSVCT1: tunicamycin, for which the localisation_or_trafficking result in data set [5] is reported as “decreases”. For the same substance, the expression_or_secretion result in data set [1] (control: untreated) was “decreases”. In the case of hSVCT2: N188/N196Q, in data set [1] (control: wild-type hSVCT2-YFP), the expression_or_secretion entry is on record as “decreases”. Same read-out and setting: next, hSVCT2: N188Q: “decreases”. On the same count and under the same terms, in the case of hSVCT2: N196Q it was “decreases”. Take hSVCT2: tunicamycin: in data set [5], the localisation_or_trafficking result is given as “no change”. Also, the expression_or_secretion entry in data set [1] (control: untreated) was “decreases”.
